Test results taken from patent US20260193335A1 (ZOETIS SERVICES, published 2026).
Substitutions are numbered along the chain they refer to. Names may count otherwise.

B1: mAb5 (felinized anti-IL31 antibody) S428L, feline IgG1a (antibody, part only; not given: variable domains of mAb5, not shown: another chain or arm of the molecule; small tags and cut ends)
constant: ASTTAPSVFPLAPSCGTTSGATVALACLVLGYFPEPVTVSWNSGALTSGVHTFPAVLQASGLYSLSSMVTVPSSRWLSDTFTCNVAHPPSNTKVDKTVRKTDHPPGPKPCDCPKCPPPEMLGGPSIFIFPPKPKDTLSISRTPEVTCLVVDLGPDDSDVQITWFVDNTQVYTAKTSPREEQFNSTYRVVSVLPILHQDWLKGKEFKCKVNSKSLPSPIERTISKAKGQPHEPQVYVLPPAQEELSRNKVSVTCLIKSFHPPDIAVEWEITGQPEPENNYRTTPPQLDSDGTYFVYSKLSVDRSHWQRGNTYTCSVLHEALHSHHTQKSLTQSPGK
B2: mAb5 (felinized anti-IL31 antibody) S428M and S434L, feline IgG1a (antibody, part only; not given: variable domains of mAb5, not shown: another chain or arm of the molecule; small tags and cut ends)
constant: B1 constant with L316M, S322L
B3: mAb5 (felinized anti-IL31 antibody) S428M and S434P, feline IgG1a (antibody, part only; not given: variable domains of mAb5, not shown: another chain or arm of the molecule; small tags and cut ends)
constant: B1 constant with L316M, S322P
B4: mAb4 (felinized anti-IL31 antibody ZTS-5864) S428E, feline IgG1a (antibody, part only; not given: light constant region, not shown: another chain or arm of the molecule)
heavy: DVQLVESGGDLVKPGGSLRLTCVASGFTFSDYAMSWVRQAPGKGLQWVAGIDSVGSGTSYADSVKGRFTISRDNAKNTLYLQMNSLKTEDTATYYCASGFPGSFEHWGQGTLVTVSSASTTAPSVFPLAPSCGTTSGATVALACLVLGYFPEPVTVSWNSGALTSGVHTFPAVLQASGLYSLSSMVTVPSSRWLSDTFTCNVAHPPSNTKVDKTVRKTDHPPGPKPCDCPKCPPPEMLGGPSIFIFPPKPKDTLSISRTPEVTCLVVDLGPDDSDVQITWFVDNTQVYTAKTSPREEQFNSTYRVVSVLPILHQDWLKGKEFKCKVNSKSLPSPIERTISKAKGQPHEPQVYVLPPAQEELSRNKVSVTCLIKSFHPPDIAVEWEITGQPEPENNYRTTPPQLDSDGTYFVYSKLSVDRSHWQRGNTYTCSVEHEALHSHHTQKSLTQSPGK
VL: QSVLTQPSSVSGTLGQRITISCTGSSSNIGSGYVGWYQQVPGMGPKTVIYYNSDRPSGVPDRFSGSKSGSSGTLTITGLQAEDEADYYCSVYDRTFNAVFGGGT
B5: mAb4 (felinized anti-IL31 antibody ZTS-5864) S428F, feline IgG1a (antibody, part only; not given: light constant region, not shown: another chain or arm of the molecule)
heavy: B4 heavy with E433F
VL: B4 VL
B6: mAb4 (felinized anti-IL31 antibody ZTS-5864) S428H, feline IgG1a (antibody, part only; not given: light constant region, not shown: another chain or arm of the molecule)
heavy: B4 heavy with E433H
VL: B4 VL
B7: mAb4 (felinized anti-IL31 antibody ZTS-5864) S428I, feline IgG1a (antibody, part only; not given: light constant region, not shown: another chain or arm of the molecule)
heavy: B4 heavy with E433I
VL: B4 VL
B8: mAb4 (felinized anti-IL31 antibody ZTS-5864) S428K, feline IgG1a (antibody, part only; not given: light constant region, not shown: another chain or arm of the molecule)
heavy: B4 heavy with E433K
VL: B4 VL
B9: mAb4 (felinized anti-IL31 antibody ZTS-5864) S428M, feline IgG1a (antibody, part only; not given: light constant region, not shown: another chain or arm of the molecule)
heavy: B4 heavy with E433M
VL: B4 VL
B10: mAb4 (felinized anti-IL31 antibody ZTS-5864) S428N, feline IgG1a (antibody, part only; not given: light constant region, not shown: another chain or arm of the molecule)
heavy: B4 heavy with E433N
VL: B4 VL
B11: mAb3 (felinized anti-NGF antibody ZTS-768) S428Y and S434H, feline IgG1a (antibody)
heavy: DVQLVESGGDLVKPGGSLRLTCVASGFTYSNYWMHWVRQAPGKGLQWVARIDPYGGGTKHNEKFKRRFTISRDNAKNTLYLQMNSLKTEDTATYYCVRSGYDYYFDVWGQGTLVTVSSASTTAPSVFPLAPSCGTTSGATVALACLVLGYFPEPVTVSWNSGALTSGVHTFPAVLQASGLYSLSSMVTVPSSRWLSDTFTCNVAHPPSNTKVDKTVRKTDHPPGPKPCDCPKCPPPEMLGGPSIFIFPPKPKDTLSISRTPEVTCLVVDLGPDDSDVQITWFVDNTQVYTAKTSPREEQFNSTYRVVSVLPILHQDWLKGKEFKCKVNSKSLPSPIERTISKAKGQPHEPQVYVLPPAQEELSRNKVSVTCLIKSFHPPDIAVEWEITGQPEPENNYRTTPPQLDSDGTYFVYSKLSVDRSHWQRGNTYTCSVYHEALHHHHTQKSLTQSPGK
light: EIQMTQSPSSLSASPGDRVTITCRASENIYSFLAWYQQKPGKVPKLLIYNANTLAEGVPSRFSGSGSGTDFTLTISSLEPEDAATYYCQHHFGTPFTFGSGTKLEIKRSDAQPSVFLFQPSLDELHTGSASIVCILNDFYPKEVNVKWKVDGVVQNKGIQESTTEQNSKDSTYSLSSTLTMSSTEYQSHEKFSCEVTHKSLASTLVKSFQRSECQRE
notes: also called mAb3 ID No. 114
B12: mAb3 (felinized anti-NGF antibody ZTS-768) S428Y and S434L, feline IgG1a (antibody)
heavy: B11 heavy with H440L
light: B11 light
notes: also called mAb3 ID No. 116
B13: mAb3 (felinized anti-NGF antibody ZTS-768) S428Y and S434P, feline IgG1a (antibody)
heavy: B11 heavy with H440P
light: B11 light
B14: mAb3 (felinized anti-NGF antibody ZTS-768) S428Y and S434W, feline IgG1a (antibody)
heavy: B11 heavy with H440W
light: B11 light
B15: mAb3 (felinized anti-NGF antibody ZTS-768) S428Y, feline IgG1a (antibody)
heavy: B11 heavy with H440S
light: B11 light
B16: mAb4 (felinized anti-IL31 antibody ZTS-5864) S428A, feline IgG1a (antibody)
heavy: B4 heavy with E433A
VL: B4 VL
notes: also called mAb4 ID No. 2
B17: mAb4 (felinized anti-IL31 antibody ZTS-5864) S428C, feline IgG1a (antibody)
heavy: B4 heavy with E433C
VL: B4 VL
notes: also called mAb4 ID No. 3
B18: mAb4 (felinized anti-IL31 antibody ZTS-5864) S428D, feline IgG1a (antibody)
heavy: B4 heavy with E433D
VL: B4 VL
notes: also called mAb4 ID No. 4
B19: mAb4 (felinized anti-IL31 antibody ZTS-5864) S428L and S434F, feline IgG1a (antibody)
heavy: B4 heavy with E433L, S439F
VL: B4 VL
notes: also called mAb4 ID No. 23
B20: mAb4 (felinized anti-IL31 antibody ZTS-5864) S428L and S434H, feline IgG1a (antibody)
heavy: B4 heavy with E433L, S439H
VL: B4 VL
notes: also called mAb4 ID No. 22
B21: mAb4 (felinized anti-IL31 antibody ZTS-5864) S428L and S434L, feline IgG1a (antibody)
heavy: B4 heavy with E433L, S439L
VL: B4 VL
notes: also called mAb4 ID No. 24
B22: mAb4 (felinized anti-IL31 antibody ZTS-5864) S428L and S434P, feline IgG1a (antibody)
heavy: B4 heavy with E433L, S439P
VL: B4 VL
notes: also called mAb4 ID No. 25
B23: mAb4 (felinized anti-IL31 antibody ZTS-5864) S428L and S434W, feline IgG1a (antibody)
heavy: B4 heavy with E433L, S439W
VL: B4 VL
notes: also called mAb4 ID No. 26
B24: mAb4 (felinized anti-IL31 antibody ZTS-5864) S428M and S434H, feline IgG1a (antibody)
heavy: B4 heavy with E433M, S439H
VL: B4 VL
notes: also called mAb4 ID No. 32
B25: mAb4 (felinized anti-IL31 antibody ZTS-5864) S428M and S434L, feline IgG1a, ID No. 34 (antibody)
heavy: B4 heavy with E433M, S439L
VL: B4 VL
notes: Same printed mutations as ID No. 49; also called mAb4 ID No. 34
B26: mAb4 (felinized anti-IL31 antibody ZTS-5864) S428M and S434P, feline IgG1a, ID No. 35 (antibody)
heavy: B4 heavy with E433M, S439P
VL: B4 VL
notes: Same printed mutations as ID No. 50; also called mAb4 ID No. 35
B27: mAb4 (felinized anti-IL31 antibody ZTS-5864) S428V, feline IgG1a (antibody)
heavy: B4 heavy with E433V
VL: B4 VL
notes: also called mAb4 ID No. 18
B28: mAb4 (felinized anti-IL31 antibody ZTS-5864) S428Y and S434F, feline IgG1a (antibody)
heavy: B4 heavy with E433Y, S439F
VL: B4 VL
notes: also called mAb4 ID No. 28
B29: mAb4 (felinized anti-IL31 antibody ZTS-5864) S428Y and S434H, feline IgG1a (antibody)
heavy: B4 heavy with E433Y, S439H
VL: B4 VL
notes: also called mAb4 ID No. 27
B30: mAb4 (felinized anti-IL31 antibody ZTS-5864) S428Y and S434L, feline IgG1a (antibody)
heavy: B4 heavy with E433Y, S439L
VL: B4 VL
notes: also called mAb4 ID No. 29
B31: mAb4 (felinized anti-IL31 antibody ZTS-5864) S428Y and S434P, feline IgG1a (antibody)
heavy: B4 heavy with E433Y, S439P
VL: B4 VL
notes: also called mAb4 ID No. 30
B32: mAb4 (felinized anti-IL31 antibody ZTS-5864) S428Y, feline IgG1a (antibody)
heavy: B4 heavy with E433Y
VL: B4 VL
notes: also called mAb4 ID No. 20

Each binder was assayed against Feline FcRn (complex of FcRn-α subunit and β-microglobulin, C-terminal His tag) (feline) (assay: SPR Biacore, biotin-FcRn on SA chip, pH 6).
Chain of Feline FcRn (complex of FcRn-α subunit and β-microglobulin, C-terminal His tag) (feline) (chain, as listed by the source, chain 1 of 2): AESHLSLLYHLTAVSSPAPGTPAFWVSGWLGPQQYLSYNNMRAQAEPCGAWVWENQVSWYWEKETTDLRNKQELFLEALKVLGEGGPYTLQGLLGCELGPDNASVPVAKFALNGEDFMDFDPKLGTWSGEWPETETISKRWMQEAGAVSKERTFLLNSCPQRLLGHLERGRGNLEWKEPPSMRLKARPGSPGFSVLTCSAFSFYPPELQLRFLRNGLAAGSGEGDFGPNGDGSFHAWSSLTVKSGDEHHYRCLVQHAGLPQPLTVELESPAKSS
Chain of Feline FcRn (complex of FcRn-α subunit and β-microglobulin, C-terminal His tag) (feline) (Q5MGS7 21-118, chain 2 of 2): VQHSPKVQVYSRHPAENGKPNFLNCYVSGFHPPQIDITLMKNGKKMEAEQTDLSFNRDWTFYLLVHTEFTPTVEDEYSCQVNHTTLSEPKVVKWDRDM

Binder	Kd
B1	8.65 nM
B2	18.6 nM
B3	33.2 nM
B4	37.9 nM
B5	29.7 nM
B6	25.5 nM
B7	16.7 nM
B8	21.4 nM
B9	18.8 nM
B10	49 nM

These binders were tested against T1, Feline FcRn (complex of FcRn-α subunit and β-microglobulin, C-terminal His tag) (feline, UniProt A0ABI7ZNY9 23-296; Q5MGS7 21-118) (assay: SPR Biacore, biotin-FcRn on SA chip, pH 6).
T1 construct: treated here as one molecule
Outline: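 Feline FcRn α/β-microglobulin complex, expressed in HEK 293 cells, His-tag purified and BirA-biotinylated, was captured on an SA chip. Fc mutant IgGs flowed over at 15° C in MES/NaCl/Tween20/BSA at pH 6, or HBS-P/BSA at pH 7.4. KD from buffer-blank-subtracted runs; regeneration with 50 mM Tris pH 8 or 9.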

Binder	Kd
B11	3.25 nM
B12	34.3 nM
B13	16.6 nM
B14	0.812 nM
B15	58.2 nM
B16	66.4 nM
B17	29 nM
B18	190 nM
B19	84.7 nM
B20	17.7 nM
B21	97.2 nM
B22	2250 nM
B23	17.2 nM
B24	17.2 nM
B25	28.3 nM
B26	42 nM
B27	63.9 nM
B28	18.9 nM
B29	18.8 nM
B30	44 nM
B31	40.6 nM
B32	63.4 nM
